Measured values as given in US20230277590A1.

Legend:
[1] = target: Mesothelin (MSLN) on target cells (human)
[2] = target: Mesothelin (MSLN) on target cells (human); remark: listed apart in the source

EC50, Jurkat NFAT luciferase, HEK293 cells transfected with titrated MSLN mRNA (MSLN molecules/cell) [2] | Substance | Time (hours) to 80% max killing of HeLa cells by transduced primary T cells (hours to 80% max killing (E:T 4:1)) [1]
– | M5 MSLN CAR, third generation | 28
80000 | m912 MSLN CAR (Gen3) | –
